The data set in a line: yeast display, Sf9 membrane polyspecificity reagent, FACS + sequencing; frameworks hold sequencing errors. The method, boiled down: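 Galactose induction of a Saccharomyces cerevisiae BJ5465 synthetic nanobody display library ran 36–48 hours. The cells were then stained for 1 hour at 4 °C with 10% biotinylated, detergent-solubilized Sf9 membrane reagent, pulled down on streptavidin microbeads and FACS-sorted into low and high (top ~1%) gates on expression and reagent-binding fluorescence. Labels for polyreactivity follow the gate of origin.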
With “QVQLVESGGGLDQAGGSLRLSCAASGRTFTVNTMGWYIQAPGKERELVAAIPNGGSTNYADSVKGRFTISHDNAKNTVYLQMNSLKPEDTAVYYCAAYYYYTLYYRYDYWGQGTQVTVSS”, the “polyreactivity (PSR sort gate)” value is reported as “low polyreactivity”.
Turning to “QVQLGESGGGLVQAGGCLRLSCAASGSIFAANAMGWYRQAPGKERELVAAINSGDSTNYADSVKGRFTISRDYAKKTVYLQMNSLKPEDTAVYYCARGLEERYDYWGQGTQVTVSS”, the “polyreactivity (PSR sort gate)” value is listed as “low polyreactivity”.
The value for “QVQLVESGGGLVQAGGSLRLSCAASGMIFTLYAMGWNRQAPGKERELVAGIDASGGSTSYADSVKGRFTISRDNAKNTVYLQMNSLKPEDTAVYYCAARILPYGYDYWGQGTQVTVSS” was “low polyreactivity”; that for “QVQLVESGGGLVQAGGSLRLSCAASGSIFYGYAMGWYRQAPGKEREFVASINSGVGSTYYADSVKGRFTISRDNAKNTVYLLMNSLKPEDTAVYYCNKVHRSFTYNDGQTPAYDYWGQRTQVTVSS” was “low polyreactivity”.
Take “PVQLQESGGGLVQAGGSLRLSCAARGNIFDADIMGWYSQAPGKERELVACIADGGSTNYAHSVKGRFTISRDNAKNTVYLHMNSVKPEDTAVYYCAAIAYPDIPTCFDYYSDYFFRGQGTQVTVSS”: the “polyreactivity (PSR sort gate)” value is on record as “low polyreactivity”.
The result for “QVQLVESGGGLVQAGGSLRLSCAASGSIFGYYVMGWYRQAPGKERELVAAISRSGGSTYYADSVKGRFTISRDNAKNTVYLQMNSLIPEATAVYYCAARGTAERDYWGQGNQVTVSS” reads “high polyreactivity”; that for “QVQLVESGGGLVQAGGSLRLSCAASGSIFYSNAMGWYRQAAGKERELVAAISVSGVSTYYADSVKGRFTISRDTAKNTVYLQMNSLKPEDTAVYYCAADTGYRYDDYYWWGGEYDYWGQGTQVTVSS”, “low polyreactivity”.
The result for “QVQLVESGGGLVQAGGSLRLSCAASGFTFGTYAMGWYRQAPGKERELVARISRRSGSTYYADSVKGRFTISRDKAKNTVYLQMNSLKPEDTAVYYCAADSRAKRYYWGQGTQVTVSS” reads “high polyreactivity”.
On to “QVQLVESGGGLVQAGGSLRLSCAASGSTLRRNAMGWYRQAPGKERELVAAISSGGSTYYADSVKGRFTISRDNAKNTVYLQMNSLKPEDTAVYYCNAAVPRGRYTSYYRSGWLDYWGQGTQVTVSS”, for which the “polyreactivity (PSR sort gate)” value is “high polyreactivity”.
The value for “QVQLVESGGGLVQAGGSLRLSCAASGRIFDVNAMGWYRQAPGKERELVAAITYSDGSTYYADSVTGRFTISRDNAKNTVYLQMNSLKPEDTAVDYCAATQEPVTPQPYGYWGQGTQVTVSS” was “low polyreactivity”.
Turning to “QVQLVESGGGLVQAGGSLRLSCAASGRISQIYAMGWYRQAPGKERELVASISSSGSRTYYADSVKGRFTISRDNAKNTVYLQMNSLKPEDTAVYYCAARWWARSRGPYDYWGQGTQVTVSS”, the “polyreactivity (PSR sort gate)” value is given as “high polyreactivity”.
With “QVQLVESGGGLVQAGGSLRLSCAASGRSFYFNAMGWYRQAPGKERELVATISSSSTTYADSVKRRFTISRDNAKNTVYLQMTSLKPEDTAVYYCAARLGTYGEWGRTSYLRWYDYWGQGTQVTVSS”, the “polyreactivity (PSR sort gate)” value is given as “low polyreactivity”.
Regarding “QVQLVESGGGLVQAGGSLRLSCAASGSIIAYYGMGWYRQAPGKESELVAAITSDASTYYADSVKWRFTISRDNAKKTDYLQMNSLKPVDTAVYYCYAYSYYYVYGYDMGYWGQGTQVTVSS”, the “polyreactivity (PSR sort gate)” value is listed as “low polyreactivity”.
Take “QVQLVESGGGLVQAGGSLRLSCAASGSTFSRYVMVWYRQAPGKERELVAAISRSGSTYYADSVKGRFTISRDNAMNTVYLQMNSLKPEDTAVYYFDATGSKSAGYGYWGQGTQVTVSS”: the “polyreactivity (PSR sort gate)” value is recorded as “high polyreactivity”.
The result for “QGQLVESGGGLVQAGGSLRLSCAASVFTFAFYTMGWYRQATGKERELVAANTRSGGSTYYPDSVKGRFTISRDNAKNTVYLQRNSLKPEDTPVYYCAARGNTPRTRRYGYWGQGTQVTVSS” reads “high polyreactivity”; that for “QVQLVESGGGLVQAGGSLRLSCAASGSTFWIYAMGWYRQAPGKERELVAAINWSGGNTYYADSVKGRFTISRDNAKNTVYLQMNSLKPEDTAVYYCAAAFYIYGVEGDYWGQGTQVTVSS”, “low polyreactivity”.
For “QVQLVESGGGLVQAGGSLRLSCAASGFNYYTMGWYRQAPGKERELVAAINYSGGRTYYADSVKGRFTISRDNAKNTVYLQMNSLKPEDTAVYYCNTARSPYDHRPERSYDYWGQGTQVTVSS”, the “polyreactivity (PSR sort gate)” value is listed as “high polyreactivity”.
On to “QVQLVESGGGLVQAGGSLRLRCAASGSIFFHNAMGWYRQAPVKERELVATINRSDGTYYADSVKGRFTISRDNAKNTVYFQMNSLKPEDTAVYYCAVDHSFNDELDYWGQGTQVTVSS”, for which the “polyreactivity (PSR sort gate)” value is recorded as “low polyreactivity”.
Take “QFQLVESGGGLVQAGGSLRLSCAASRFYTMGWSRQAPGKERELVAAISWSGGDTYYADSVKGRFTISRDNAKNTVYLQMTSLKPEDTAVYYCAKKTIGSYVHEPYYYWGHGTQVTVSS”: the “polyreactivity (PSR sort gate)” value is recorded as “low polyreactivity”.
On to “QVQLQESGGGLVQAGGSLRLSCAASGTISQEDWMGLYRQAPGKEREFVAAIGLGSNTNYADSLKGRFTISRDNAKNTVYLQMNSLKPEDTAVYYCAVSVWQYSDHVYRGQGTQVTVSS”, for which the “polyreactivity (PSR sort gate)” value was “low polyreactivity”.
The value for “QVQLVESGGGLVQAGGSLRLSCAASGRTFRGNAMGWYRQAPGKERELVATINSGASTNYADSVKGRFTISRDNAKNPVYLQMNSLNPEDTAVYYCAAVKYFRWKYNYWGQGTQVTVSS” was “high polyreactivity”; that for “QVQLVESGGGLVQAGGSLRLSCAASGFTFFYNAMGWYRPAPGKERELGAVITWNGGTTYYADSVKGRFTISRDNAKNTVYLQMNSLKTEDTAVYYCNADGLILYDYWGQGTQVTVSS” was “low polyreactivity”.
The value for “QVQLVESGGGLVQAGGSLRLSCAASGFSFYYNTMGWYRQAPWTERELVAAITRSFGSTYYADSVKGSFTIARDHAQNTVYVQMNSLKPEDTAVYFCAARAYYFPKLPADYYWGQGTQVSVSS” was “high polyreactivity”; that for “QLQLVESGGGFVQAGGSLRLSCDASGSTFGNYTMGWYRQAPGKERELVAAISFSGGRTYYADSVKGRFTISRDNAKNTVYLQMNSLKPADTAVYYCAKRSYGYSAFIYNYWGQGTQVTVSS” was “high polyreactivity”; that for “QVQLVESGGGLVQAGRSLRLSCAASGSTFPVNTMGWYRQAPGKDRELVAAITKNGANTYYADSVKGRFTISRDNAKNTVYLQMNSLKPEDTAVYYCAARYVYGKSYSRWLVELDYWGQGTQVTVSS” was “low polyreactivity”.
The value for “QVQLVESGGGLVQAGGSLRLSCAASGRTFRTYAMGWYRQAPGKERELVAAITTSGSSTYYADSVNGRFTISRDNAKKTVYLQMNILKPEDTAVYYCAAARAAIVPGYYSWGQGSQVTVSS” was “low polyreactivity”.
Take “QVHLEESGGGIVQAGGSLRLSCAASGSNFGYNAMGWYRQAPGKEREFVARISSRDDRTSYADSVKGRFTISRDNAKNTVYLQMNSLKPEDTAVYYFAAVRFFLTRAWRPLNYWGQGTIVTVSS”: the “polyreactivity (PSR sort gate)” value is listed as “high polyreactivity”.
As to “QVQLVESGGGLVQAGGSLRLSCAASGRIFQYYAMGWYRQAPGKERELVAAITRSGGRTYYADSVKGRFTISRDNAKNTVYLQMYSLKPEDTAVYYCAASQRYSVIYYGFSEYDYWGQGTQVTVSS”, the “polyreactivity (PSR sort gate)” value was “high polyreactivity”.
The value for “QVQLVESGGGLVQAGGSLRLSCAASGSIFYYNAMGWYRQAPGKERELVATITSGGSTYYADSVKGRFTISRDNAKNTVYLQMNSLKPEDTAVYYCAPRSQSIRYTYIRSYYWGQGTQVTVSS” was “low polyreactivity”.
The result for “QVQLVESGGGLVQAGGSLRLSCAASGRIFYRYALGWYRQAPGKERELVAVITSSGGRTYYADSVKGRFTISRDNAKNTVYLQMNSLKPEDTAVYYCAATPVGSHYGNYYWGQGTQVTVSS” reads “high polyreactivity”; that for “QVQLVESGGGLVQAGGSLRLSCAASGSTFYRYAMGWYRQAPGKERELVAAITRGGGRTYYADSVKGRFTISRDNAKNTVYLQMNSLKPEDTAVYYCNAASPYYDSWGQGTQVTVSS”, “high polyreactivity”; that for “QVQLVESGGGLVQAGGSLRLSCAASGSIFSFNAKGWYRQAPGKERELVAAITTSGGSTYYADSVKGRFTISRDNAKNTVYLQMNSLKPEDTAVYYCAAVRPDNSLYEPMDYWGQGTQVTVSS”, “low polyreactivity”.
The value for “QVQLVESGGGLVQAGGSLRLSCAASGYTFVIYAMGWYRQAPGKERELVAAITTIGGRTYYADSVKGRFTISRDNAKNTVYLQMNSLKPEDTAVYYCAADIRSNRLYDGGYWGQGTQVTVSS” was “low polyreactivity”; that for “QVQLESGGGLVQAGGRLRLSCAASGSIIDQYVMGWYRQAPGKERELVAAISRGGRTYYADSVKGRFTISRDNAKNTVYLQMNSLKPVDSSVYYCAARSDVRGFDYWGQGTQVTVSS” was “low polyreactivity”.
For “QVQLVESGGGLVQAGGSLRLSCAASGLIFYSNAMGWYRQAPGKERELVAAISFNSGSTYYADSVKGRFTISRDNAKNTVYLQMNSLKPEDTAVYYCAKKRRFVVLSVQGDYWGQGTQVTVSS”, the “polyreactivity (PSR sort gate)” value was “low polyreactivity”.
For the sequence “QVQLVESGGGLVQARGSLRLSCAASGLTFASYAMGWYRQEPGKERELVARISRSGGSTYYADSVKGRFTISRDNAKNTVYFHMNSLKPEDTAVYYCAADYIFRRYPGGGIYDYDYWGQGTQVTVSS”, the “polyreactivity (PSR sort gate)” value is “high polyreactivity”.
As to “QVQLVESGGGLVQAGGRLRLSCAASGTTFFLYAMGWYRQAPGKERELVASISDGSSTNYADSVKVRFTISRDNAKNTVYLQMNSLKPEDTAVYYCAADFERRRYDYWGQGTQVTVSS”, the “polyreactivity (PSR sort gate)” value is listed as “low polyreactivity”.
For “QVQLVESGGGLVQAGGSLRLSCAASGFTFYLYAMGWYRQAPGKERELVAAINSGSSTYYADSVKGRFTISRDNAKNTVYLQMNSLNPEDTAVYYCATDTDRTMDYWGQGTQVTVSS”, the “polyreactivity (PSR sort gate)” value is listed as “low polyreactivity”.
For “QDQLVESGGGLVQAGRSLRLTCAASGSIIPGNAMGWYRQAPGKERELVAVIDFSGASTYYADSVKGRFTISRDNAKNTVYLQMNSLKPEDTADYWGQGTQVTVSS”, the “polyreactivity (PSR sort gate)” value was “low polyreactivity”.
The value for “QVQLVESGGGLVQAGGSLRLSCAASGSTFGVNVMGWYRQAPGKERELVDAISRSGGRTYYADSVKGRFTISRDNAKNTVYLQMNSLKPEDTAVYYCNTRGYDYWGQGTQVTVSS” was “high polyreactivity”; that for “QVQLVESGGGLVQAGGCLRLSCAASGFTFIYYVMGWYRQAPGIERELVAAINGRGDRKYYADSVKGRFTISRDNAKNTVYLQMTSLKPEETAVYYCNARTHTWGYSAKFDYWGQGTQVTVSS” was “high polyreactivity”.

(Values after the nanobody polyreactivity screen of Harvey et al. (2022).)
